In patent US20050171017A1 one finds FL-2 MFI and luciferase induction (CRE-luciferase reporter, NCI-H295R human adrenal cortex cells) data, which are given here for two substances.

Assay [1] has as its target thyroid-stimulating hormone (TSH) receptor (human) (UniProt P16473). The assay can be described thus: flow cytometry, 10 ug/ml TSH-biotin + SA-PE on human PBMC donor 2, lymphoid gate; SA-PE alone 3.92, unstained 3.19; no * (no credible shift).
Assay [2] shares this target. The assay can be described thus: flow cytometry, 10 ug/ml TSH-biotin + SA-PE on U937 human monocyte line, all live cells; SA-PE alone 4.88, unstained 4.49; * = credible positive shift. (A flow cytometer gives signals particle by particle.)
Assay [3] has the same target. The assay can be described thus: flow cytometry, 10 ug/ml TSH-biotin + SA-PE on human PBMC donor 1, myeloid gate; SA-PE alone 4.44, unstained 3.43; * = credible positive shift.
The target is the same in assay [4]. The assay can be described thus: flow cytometry, 10 ug/ml TSH-biotin + SA-PE on human PBMC donor 2, myeloid gate; SA-PE alone 5.92, unstained 4.33; * = credible positive shift.
Assay [5] shares this target. The assay can be described thus: flow cytometry, 10 ug/ml TSH-biotin + SA-PE on human PBMC donor 1, lymphoid gate; SA-PE alone 2.50, unstained 2.13; no * (no credible shift).
Assay [6] shares this target. The assay can be described thus: cell-based or functional assay.

thyroid-stimulating hormone (TSH) receptor (human), sequence (P16473 21-764): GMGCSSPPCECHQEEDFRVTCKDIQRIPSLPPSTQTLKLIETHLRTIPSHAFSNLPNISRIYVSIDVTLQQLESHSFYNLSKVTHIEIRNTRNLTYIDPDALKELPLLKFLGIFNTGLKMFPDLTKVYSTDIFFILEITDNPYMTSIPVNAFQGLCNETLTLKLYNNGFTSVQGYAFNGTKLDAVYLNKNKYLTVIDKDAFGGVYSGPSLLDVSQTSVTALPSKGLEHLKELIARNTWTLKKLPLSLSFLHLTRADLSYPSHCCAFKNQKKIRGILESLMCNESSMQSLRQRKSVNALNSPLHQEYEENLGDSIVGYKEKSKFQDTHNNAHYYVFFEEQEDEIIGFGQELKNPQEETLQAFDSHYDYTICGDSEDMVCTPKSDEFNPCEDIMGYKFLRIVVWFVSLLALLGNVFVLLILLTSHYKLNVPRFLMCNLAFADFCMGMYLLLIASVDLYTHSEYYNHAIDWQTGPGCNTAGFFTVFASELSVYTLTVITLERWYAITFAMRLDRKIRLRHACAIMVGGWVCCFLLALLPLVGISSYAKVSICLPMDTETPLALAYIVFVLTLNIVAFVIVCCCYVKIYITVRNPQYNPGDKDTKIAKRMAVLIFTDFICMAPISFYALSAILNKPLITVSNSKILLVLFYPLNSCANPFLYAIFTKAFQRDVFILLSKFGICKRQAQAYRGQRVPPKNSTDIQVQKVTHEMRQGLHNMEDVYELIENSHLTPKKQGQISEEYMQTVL

Consider “TSH-biotin (from UniProt P01215 25-116; P01222 21-132) (ligand)”, for which the FL-2 MFI in assay [1] was 4.23 MFI; in assay [2], 6.34 MFI; in assay [3], 7.78 MFI; in assay [4], 7.26 MFI; in assay [5] it was 2.63 MFI.
The substance “Thyroid stimulating hormone (TSH), purified TSH heterodimer protein (from UniProt P01215 25-116; P01222 21-132) (ligand)” showed a luciferase induction (CRE-luciferase reporter, NCI-H295R human adrenal cortex cells) in assay [6] of 15 to 25 fold.
